The supplement of paper PMC12636428

Test system: Saccharomyces cerevisiae
Test: transcriptional activation domain activity (GFP:mCherry ratio, weighted mean of sorted bins, harmonized to initial dataset scale) (arbitrary fluorescence ratio units); higher = stronger transcriptional activation
Conditions: beta-estradiol 1 µM; induction time 4 h
Procedure: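 53-aa protein tiles (fungal proteins plus yeast TF control tiles) fused C-terminally to a DBD-estrogen-binding domain-mCherry synthetic TF, integrated in S. cerevisiae (URA3 locus) with a GFP reporter. Cells were induced with 1 uM beta-estradiol for 4 h at 30 C, FACS-sorted into 8 bins by GFP:mCherry ratio and barcodes sequenced. Activity is the read-weighted mean bin fluorescence (GFP:mCherry), averaged over barcodes (median 12); tiles under 50 reads were discarded. New active-learning values were harmonized by linear fit onto the scale of the initial (Hummel et al.) dataset. The assay saturates at low and high signal.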

Row | Sequence | transcriptional activation domain activity
1 | EFYLQIPFRVCMGNGRRRDRVLRDMRRAKRYSDAIEAMKRIVWPIVSFRLLLP | 63600
2 | EGAAAPAPAAAEKKEEPKKAETPKAEAPKAEAPKETSSRADAAKPAAAPKAAA | 39400
3 | EGAADGRDEGEKSKVQKVGKACVYCQRSHMTCDESRPCKRCVSRKIADLCHDR | 29900
4 | EGAASGTEEAPKPKKKKKQQPRKSKPRIDAASGTEAEPNAATESEAPAAAGAA | 16600
5 | EGADVVVEGNERRKKGESVWEKNLRKGLYGVALDYVLEQASSPIIVLTVLTAL | 60900
6 | EGAQDCGESESEGANESEEESEEENVFVVGKILDKRTNGKRKQVEYLVRCESQ | 39600
7 | EGDDEAPVQPKGRPRKSKAAAAESADEEPRPKAVRSRPSRARKSKPVASDSDV | < 6570
8 | EGDRKGRGRGRGRDDRGPRDRNREREDRDEKNDKKRAREEGNDEKPAKNADSK | 54500
9 | EGDSDEEGDEDMYQQVDMNDVMDGVLEGMDNMGEERLNRGRARLKIHTGGPGK | 37300
10 | EGEAPKAEEEEEKDAAPDGEGEQPAEADPEEEERQRRAAIAARMARLGGARLG | 14200
11 | EGEDALTLPLIISSQALLVVPPEKIVALPLQQMLSLVVRAITQAFVHGAFISR | 67100
12 | EGEEDKPKAARGRKRKADADAEEPPAKKTKPASKAAPGSKPASKAAASKPASK | 25400
13 | EGEEGEEGEEGEEGEEGTCCASPLQSLALSRLRLGLSLLVDCISIESMRTYRL | 34500
14 | EGEGAADPAAGAGAGAEEDGEEEEDEGAADPAAGAGAGDEEGEGAAEEGAAES | 17600
15 | EGEGEEEAVTLKKTKKGRGGEEEAAKKGKKKGDEEDPAWEEAAAKKGKKKGEE | 37800
16 | EGEKKDQESDEKESNEEKKDDVEKLTKEMDKVTIKGEKKILGKSKGFGFVCFS | 7730
17 | EGEREREREGEEMEEVMREGTNREEKKEEEEEGKRKDKRRKETGNLLLLLVVV | 40400
18 | EGEVTTTSSEEETTTEEETTRTRPTRTTTTEEEQTTTDASSTTTSQDEETTTP | 39200
19 | EGEYKTLATDDLGNILNLNYGETNEVIMNEINDLNLPLGPLSDEKSVKVSTFS | 84800
20 | EGGADGEEEEDGEEEVKEKVPAKRGRKPRGERVEEVSSPAAPVRGKKAKPTTA | 41200
21 | EGGEGGDGAGGDGAAAGGKDGEGGKGGGKEEKGGKAGKDAKGGAKKPGSGKKG | 16500
22 | EGGEGGSGSGSGGNAKTRRKGRRRGSSRDGAGAGAGAGAGEGAGGEVGRSKKK | 7430
23 | EGGEKGGHGGKEGGEGGEGGEGGEEGGHGGHWGHKKHGHGGGKQKGGWGHHGY | 45300
24 | EGGEKGTKEGGEKKEGAGEKEGGEKKEGGEKEGAKEGGEIGAKEGEEKKEGGE | 17500
25 | EGGRQRERAGGAGGEDSKGEGRREERREEGKGGKGSAEERESREGSARGGEAG | 10200
26 | EGKEERGKGGEGEGGEGGEGERRDGKREGREGNGNRGGTEGKGERRKRKSQRE | 28700
27 | EGKGKKGEKREREKRRGRGGKREKRRKREGRRRREKREGKEGGGEKEEKEGEE | 29000

Row | Sequence | transcriptional activation domain activity
28 | EGKKREEEEGRRKEGGTEEDREREPKRGDRRSRGKAGQSPEARERGTGGQGRR | 37200
29 | EGKPVAAEGVKDSWDASSDEEGSNPAPAPAPAAKAKPSQKANGTHVPISESQT | 40500
30 | EGKTRESKQKQGRERIGKGKGSREKGERREEEEGKGGKRRAGRKEGEWRSRGS | 32400
31 | EGLGTAWLFKKEDLLCKSAYEIATISNSWLCGVQGTLLMYLVLVLLCLSFFLI | 30800
32 | EGLYKCRYGSYFIELSRYSFFFAMFLFFLRAGWYPFSAFWLGCFWHQLVFTAH | 40800
33 | EGPPSPDKGKAEDEKNEKPQANTAKKAKPTEEKKVGEGKKAAAGTGGAGAKKE | 23200
34 | EGRRASRRKARGKSGADTPGTSEDEGVGGTSKSKPRKKRKLERKSKDAGKFKS | 27600
35 | EGSARGGEAGKKEERQADEKEHKGRARPGRGEKDGGGRGRREEERDRKEQNGG | 34000
36 | EGSEEKKERSRRHGDSDRRERRRHRSGSRSRDHDRDRERRHRRHRRSRSRDKE | 13400
37 | EGSERESKGSEREGEGSEREGKRNEREGKRGERGGERVGERGSEKVGERGSEK | 22700
38 | EGSGEEAGGEGSGGEEDEEDEAGGGGDDADGRRGEDDGADEGTAGARAAAKAA | 34900
39 | EGSSSGEEESSEEEEAAPRREDAAAARQKAADEMIEEQIKRDLAARAAGKKHW | 30100
40 | EGTGYITVSSGTRYVRLVGARGEEGEGVFGGGRRRRVEVVDFSRARVRAAQIG | 49000
41 | EGYDLLPFRLGCAYVVLGWYWISTTWVEAEPVSQGVKPPKDRDYFHRVKLRFD | 42200
42 | EHFAGNNHVNRVVNFVQSCFTFYAPKMCKYYTEILQALFSQPTWWMVCCCGFW | 46200
43 | EHHLLKALVDVIKRAMLISAQGASGRFEAKDLHLEHMIYWLKYFLNRAVCIAL | 62700
44 | EHIEVDLTGIEEVTTGAGLLSRTRTSRHCFLHKTKVLQILDMKCTHDHPSPSS | 29800
45 | EHPARARVDKNRTKTSAREVHPARAAREEHPARAYADKNRTKTSARDVHPAGA | 40400
46 | EHQCATIQLDFQLPQQFNLEYMTSEKAPAAKIEAAPKTETAPKAEAPAAAPAA | 42500
47 | EHRVMSAKIKAGELIDNGRFVDEKSFEKPPIHFHLICDHNIRVLLIIIHHSLY | 21300
48 | EHSTTGDSWFLGLVLCYPLRSYGYFMLFFIWLRLFLVLAFQFLLYACNYLFIL | 62200
49 | EHVFLVYFFIFTMQEFAGELVSLVDVMRRIYSLDQARANRAHWWKWIFRCWLH | 58900
50 | EHVHVNKIPVRVSHGSGFELMGKSSFIFKGFRSLGILMLIFWSKANHILIVTV | 70700
51 | EIAEGDEAEAARPAKIPRKPRRKKAVEGEGANEEGGAAPPRPKRKRKTKSKSA | 42100
52 | EIAVEEPAQPMDVDGAVEAETDATTSKQDKKDKKKKKKASKESKVEAEPEAAA | 48700
53 | EIDEAAGEINEAAGEVNEAGEVDKAGEVDEAGEVNDEAGKIDKAAGEIDEAAG | 30600
54 | EIESVVMLYVSGRLLRIIEVGLVEGRPDVQAIVQALVARLICVTVSATAKWAR | 36000

Row | Sequence | transcriptional activation domain activity
55 | EIFSSYNASMVQESAGIDFLDFAMPDLIAEANDWAFQGVDSAFFDSVMAGYTL | 147000
56 | EIGALMLLSKTLEDNPNRLGSLVRILTLKCFIPQSYFKLMVRRLNILFSCCSR | 64300
57 | EIGPDGEVKKKYDPKDPMRPRRKKARRACFACQRAHLTCGDERPCQRCIKRGL | 53300
58 | EIKEATGEEHQEEQEDAIDSKEKVVMQSCPEVSLRRIRRLLRKHKGDPNKVID | 27300
59 | EIKGDLTMTNLVTNFGFSIRWTHNLFEHLSIDWVGRVITIYEDKICLWNHLRF | 43500
60 | EILHLMVDRDLFLLLAIDGIMCLATSFGFLLQKAIVHDCLTWNGSGWIIQSLW | 68500
61 | EIPIQLGCIHLHSLWMTYALLYQLIYPMMMIYNLVNCIYFGSGLQIAWWMFSI | 44200
62 | EITNDESVEAHKEEQAVEAKEGSPEIAAEAEAEEGGAKPAEESKKPRKLIEEE | 12500
63 | EIVDPMQSWLPFQPEASDNVLPDENFFLDDSLFTFGDTLTPNFGPVEWYDLLA | 140000
64 | EKAGEEEKAGEEEKAAEEEKSAEEEKAAKEEEMKAMEKSKAEKEASSEEPKAE | 35700
65 | EKAKPAEEPKPAAEPAPAEEKAAEPETQPESKPAEELSSPTEEPAPIEEAKPA | 15800
66 | EKDKENDKGEKGEGEKKGENRRGRRRGGRGRGGGGDKDKEKEKDGGGGGGAKR | 47000
67 | EKDKGEPADGAAAPVVKRKRGRPPNKDRNKPPPAPAPAPPPAGASASTPASRL | 33400
68 | EKDKKEETKDEPKKNEVKPETKDDVDEKKDENGRPKLVVKRLRKETTAAAAVA | 37600
69 | EKEARHAGRESRKAPEVREHRSSRRKDKERERSARPDNERRKTHVDGEDPEER | 23800
70 | EKEAVVKDTASSTRAKTTRSKPKAAPAAAEPPKTATRGRGAAKLAADKPAPKT | 23400
71 | EKEEAEKKKKEEAEEKEKEKEKKEKKGGKKKRASKKSSRKSKSKEAAGSGADE | 25500
72 | EKEEDAQLRDRHRGRHSVDRDLHRRGGRVRDRSRGERSLRNQPRAAGAGAAAG | 57600
73 | EKEESDEDESEKGSAAGGRGKAALKTWVKRVRLIRDKGTLLGKGFGYVQFNDR | 69000
74 | EKEGKRRSLQKASTSKASSKTLHFMECKVVPEQPLLRIRWSSLTHGALMLYNG | 49300
75 | EKEKERKHKHRSRRDRSRSRDSDGGRDRRHRHRRDRSRSRDAHDDRERRHRHS | 19000
76 | EKERGRERERKERKVNGAWIKTKPKKRRDDSARARRHTRRRDVSSSASPTREM | 25800
77 | EKESVCYKLRLNRDSLSIMKDFLACKHEHDPSLIVLAHVLLYKVTATFVKAVS | 53500
78 | EKEVEGNKNNEEDKPEENEEKDGEDKDAKEKGEEDEDEEDRDQDQEDEDQEGR | 11800
79 | EKGEEGGSGGEGGEGRRGGQARGTGRRAGQEGKGPGKGEGGAARRRKEGEARK | 54500
